Source: US20230183665A1, “THERMOSTABLE GLUCOCEREBROSIDASE” (TEIKYO UNIVERSITY, priority 2020, published 2023)

Columns and labels:
[1] = Optimum temperature for glucocerebrosidase activity (Examples 5, 12, 20); type: biochemical; details: 100 μM cerebroside B, pH 5.5, 15 minutes at each temperature, average of three tests
Experimental: The glucocerebrosidase activity of the fraction was measured as follows: a predetermined amount of sample was added to a 50 mM acetate buffer solution (pH 5.5) containing 100 μM glucosylceramide (cerebroside B), 0.1% Tween 20, and 0.05% sodium cholate, and incubated at 37° C. for 15 minutes. Subsequently, a 4-fold amount of ethanol was added to the obtained reaction solution, mixed therewith, and then centrifuged at 15000 rpm for 20 minutes. The centrifuged supernatant was subjected to high-performance liquid chromatography analysis. In the high-performance liquid chromatography analysis, the sample was injected to TSKgel ODS-120T column (4.6 mm×30 cm), and a solvent having an ethanol concentration of 83% was flowed at a flow rate of 0.8 mL/min, followed by detection in a UV detector (ultraviolet absorption wavelength: 215 nm) to thereby measure the amount of ceramide newly generated through enzymatic reaction. The amount of ceramide was determined by using, as a standard, ceramide generated from cerebroside B by imiglucerase (manufactured by Sanofi S. A.), human-derived glucocerebrosidase. The molecular weight of the generated ceramide was examined by negative LC-MS (manufactured by Agilent Technologies, Inc.) to thereby confirm that it was ceramide generated from cerebroside B (ESI-MS m/z: 564.5[M-H]^−). Glucocerebrosidase activity per mL of the enzyme solution was calculated when the amount of the enzyme that generated 1 μmol of ceramide for 1 minute in the enzymatic reaction solution was defined as 1 unit (U).
RGC1 obtained in Example 2 and imiglucerase were each added to a 50 mM acetate buffer solution (pH 5.5) containing 100 μM glucosylceramide (cerebroside B), 0.1% Tween 20, and 0.05% sodium cholate, and incubated at each temperature for 15 minutes. Subsequently, a 4-fold amount of ethanol was added to the obtained reaction solution, mixed therewith, and then centrifuged under a condition of 15000 rpm for 20 minutes. The supernatant was subjected to high-performance liquid chromatography analysis to measure the amount of ceramide generated through enzymatic reaction. The high-performance liquid chromatography analysis was carried out in the same manner as in Example 2. The amount of ceramide and enzymatic activity were also calculated in the same manner as in Example 2. A temperature that attained the highest glucocerebrosidase activity was regarded as the optimum temperature. This test was conducted three times, and an average value was determined therefrom.
The optimum temperatures for the glucocerebrosidase activity of SGC1 obtained in Example 11 and imiglucerase were confirmed by the same method as in Example 5.
Enzyme extracts derived from various plants which were obtained in accordance with Example 19, the purified rice-derived RGC1 mentioned above and the purified soybean-derived SGC1 mentioned above were each added to a 50 mM sodium acetate buffer solution (pH 5.5) containing 100 μM glucosylceramide (cerebroside B), 0.1% Tween 20, and 0.05% sodium cholate, and incubated at each temperature for 15 minutes. Subsequently, a 4-fold amount of ethanol was added to the obtained reaction solution, mixed therewith, and then centrifuged at 15000 rpm for 20 minutes. The supernatant was subjected to high-performance liquid chromatography analysis to measure the amount of ceramide generated through enzymatic reaction. The high-performance liquid chromatography analysis was carried out in the same manner as in Example 5. The amount of ceramide and enzymatic activity were also calculated in the same manner as in Example 5. As a result, a temperature that attained the highest glucocerebrosidase activity was regarded as the optimum temperature. This test was conducted three times, and an average value was determined therefrom.

[2] = Thermostability: relative residual glucocerebrosidase activity after incubation at pH 5 and pH 7 (Examples 6, 13); type: physicochemical; details: 37° C.; pH 5 for 6 to 106 hours, pH 7 for 4 to 48 hours; FIGS. 1 and 2
Experimental: The glucocerebrosidase activity of the fraction was measured as follows: a predetermined amount of sample was added to a 50 mM acetate buffer solution (pH 5.5) containing 100 μM glucosylceramide (cerebroside B), 0.1% Tween 20, and 0.05% sodium cholate, and incubated at 37° C. for 15 minutes. Subsequently, a 4-fold amount of ethanol was added to the obtained reaction solution, mixed therewith, and then centrifuged at 15000 rpm for 20 minutes. The centrifuged supernatant was subjected to high-performance liquid chromatography analysis. […] The amount of ceramide was determined by using, as a standard, ceramide generated from cerebroside B by imiglucerase (manufactured by Sanofi S. A.), human-derived glucocerebrosidase. […] Glucocerebrosidase activity per mL of the enzyme solution was calculated when the amount of the enzyme that generated 1 μmol of ceramide for 1 minute in the enzymatic reaction solution was defined as 1 unit (U).
RGC1 obtained in Example 2 and imiglucerase were each incubated at pH 5 simulating lysosome (50 mM acetate buffer solution (pH 5.0) containing 0.1% Triton X-100 and 0.05% sodium cholate) at 37° C. for 6 to 106 hours or at pH 7 simulating cytoplasm (50 mM potassium phosphate buffer solution (pH 7.0) containing 0.1% Triton X-100 and 0.05% sodium cholate) at 37° C. for 4 to 48 hours. […] This test was conducted three times, and an average value was determined therefrom. […]

B1: RGC1: rice-derived glucocerebrosidase purified from rice stems; identical to Os3BGlu6, belongs to GH1; SEQ ID NO: 1 (protein)
chain: MGRIKSSSGRCSTARLEAVAVLVVVFGVASSSLRGCIAQQSGGGLTRGSFPEGFVFGTASAAYQYEGAVKEDGRGQTIWDTFAHTFGKITDFSNADVAVDQYHRFEEDIQLMADMGMDAYRFSIAWSRIYPNGVGQVNQAGIDHYNKLIDALLAKGIQPYVTLYHWDLPQALEDKYKGWLDRQIVDDFAAYAETCFREFGDRVKHWITLNEPHTVAIQGYDAGLQAPGRCSVLLHLYCKAGNSGTEPYVVAHHFILAHAAAASIYRTKYKATQNGQLGIAFDVMWFEPMSNTTIDIEAAKRAQEFQLGWFADPFFFGDYPATMRARVGERLPRFTADEAAVVKGALDFVGINHYTTYYTRHNNTNIIGTLLNNTLADTGTVSLPFKNGKPIGDRANSIWLYIVPRGMRSLMNYVKERYNSPPVYITENGMDDSNNPFISIKDALKDSKRIKYHNDYLTNLAASIKEDGCDVRGYFAWSLLDNWEWAAGYSSRFGLYFVDYKDNLKRYPKNSVQWFKALLKT
modifications: Glycine max (L.) Merr. Enrei
For B1, the “Optimum temperature (° C.)” value ([1]; Example 5) was 54.0 °C, the “Optimum temperature (° C.)” value ([1]; Example 20) was 54.0 °C and the “stability (relative residual activity) compared with imiglucerase” value [2] was “evidently superior in stability to imiglucerase”.
